The data set is described as follows: yeast display, Sf9 membrane polyspecificity reagent, FACS + sequencing; frameworks hold sequencing errors. An outline of the steps: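 Sorting gates, low and high (top ~1%), were placed on anti-HA fluorescence to track expression and on streptavidin fluorescence to track reagent binding. A clone's polyreactivity label is taken from the gate it came out of. The reagent was 10% biotinylated, detergent-solubilized Sf9 membrane, applied for 1 hour at 4 °C to galactose-induced yeast display cells.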
As for “QVQLVESGGGLVHAGGSLRLSCAASGIIFRFYAMGWYRQAPAKERELVAAISSGGSTYYADSVKGRFTISRDNAKNTVYLQMIRLKPEDTAVYYCNARVRYKRTVRYGYWGQGTQVTVSS”, the “polyreactivity (PSR sort gate)” value is “high polyreactivity”.
As to “QVQHVESGGGLVQAGGSLRLICAASGYIFRGYVMGWYRQAPGKERELVAAITSRGDSTYYADSVKGRFTISRDNAKNTVYLPMNSLKPEDTAVYYCAARGGVLKGYYYWGQGTQVTVSS”, the “polyreactivity (PSR sort gate)” value was “high polyreactivity”.
On to “QVQLVESGGGLVPAGGSLLLSCAASGLTFYVYAMGWYRQAPGKERELVAAISSGGRTYYADSVKGRFTISRDNAKNTVYLQMNSLKPEDTAVYYCAAFRHRNYGYWGQGTQVTVSS”, for which the “polyreactivity (PSR sort gate)” value is listed as “high polyreactivity”.
As for “QVQLVESGGGLVQAGGSLRLSCAASGSTFDGYAMGWYRQAPGKERELVAAISRSGGRTYYADSVKGRFTISRDNAKNTVYLQMNSLKPEDTAVYYCAALYPYKREDYWGQGTQVTVSS”, the “polyreactivity (PSR sort gate)” value is reported as “high polyreactivity”.
Consider “QVQLVESGGGLVQAGGSLRLSCAASGRTFLWNAMGWYRQAPGKERELVAAIRGGTITYYADSVKGRFTISRDNAKNTVYLQMNSLKPEDTAVYYCAATSARGQYYWYCFNGYPYSEFGYWGQGTQVTVSS”, for which the “polyreactivity (PSR sort gate)” value was “low polyreactivity”.
As to “QVQLVESGGGLVQAGGSLRLSCAASGFIFSYYAKGWYRQAPGKERELVAAIDGSGGSTYYADSVKGRFTISRDNAKNTVYLQMNSLKPVDTAVYYCNTLIFIQGLGYDYWGQGTQVTVSS”, the “polyreactivity (PSR sort gate)” value is “high polyreactivity”.
The result for “QVQLVESGGGLVQAGGSLRLSCAASGRIFWGNGMGWYRQAPGKEREFVAAISKSGGSTYYADSVKGRFTISRDNAKNTVYLQMNSLKPEDTAVYYCNARTSRYRRGGDSWGQGTQVTVSS” reads “high polyreactivity”; that for “QVQLVESGGGLVQAGGSLRLSSAASRSTFTVYAMGWYRQAPGKETELVAAITGGGRTYYADSVKGRFTISRDNAKNTVYLQMNSLKPEDTAVYYCAKKYSWRYARVYSLHFDYWGQGTQVTVSS”, “high polyreactivity”.
As for “QVQLVESGGGLVQAGGSLRLSCAASGSTFYIYVMGWYRQAPGKERELVATITWGGVSTYYADSVKGRFTISRDNAKNTVYLQMNSLKTEDTAVYYCATRGKSHGQQFNYWGQGTQVTVSS”, the “polyreactivity (PSR sort gate)” value is given as “high polyreactivity”.
As to “QVQLVESGGGLVQAGGSLRLSCAASGFTFDQYTMGWYRQAPGKERELVAAISSSGGSTYYADSVKGRFTISRDNAKNTVYLQMNSLKPEDTAVFYCAARFLLTQRFSHDYWGQGTQVTVSS”, the “polyreactivity (PSR sort gate)” value is on record as “low polyreactivity”.
In the case of “QVQLVETGGGLVQAGGSLRLSSAASGRTFYRYAMGWYRQAPGKDRELVATISRSGANTYADSVKGRFTISRDNAKNTVYLQMNSLKPEDTAVYYCNAGQYKGWGRMDYWGQGTQVTVSS”, the “polyreactivity (PSR sort gate)” value is listed as “high polyreactivity”.
Take “QVQLVESGGGLVQAGGSLRITCAASGIIFGSYAMGWYRQAPGKETELVAAISTSGGSTYYADSVKGRFTISRDNAKNTVYLQMNSLKPEDTAVYYCNKAGVYRDSSRYNYWGQGTQVTVSS”: the “polyreactivity (PSR sort gate)” value was “high polyreactivity”.
On to “QVQLVESGGGLVQAGGSLRLSCAASGFIFDDNAMGWYRQAPGKERELVAAITSGGGSTYYADSVKGRFTISRDNAKNTVYLQMNSLKQEDTAVYYCNAVPSQHDEFDSWGQGTQVTVSS”, for which the “polyreactivity (PSR sort gate)” value is recorded as “low polyreactivity”.
The result for “QVHHVESGGGLVQAGGSLRLSCADSGSIFTYYAMGWYRQAPGKERDLVAAINSGGRTNYADSVKGRFTISRDNAKNTVYLQMNSLKPVDTAVYYCANYGVLQYGYWGQGTQVTVSS” reads “low polyreactivity”.
For “QVQLVESGGGLVQAGGSLRLSCAASGITFFYYAMGWYTQAPGKERELVAAISTSGGRTYYADSVKGRFTISRDNAKNTVYLQMHSLKPEDTAVYYCAARSRVQPAGPRYDYWGQGTQVTVSS”, the “polyreactivity (PSR sort gate)” value was “high polyreactivity”.
The result for “QVQLVETGGGLVQAGGSHRLSCAASGFTFWYNAMGWYRPAPGKERELVAAIDWRGSSTYYADSVNGRFTISRDNAKNTVYLQMNSLKPEDTAVYYCAADFGDRYVYWAQGTQVTVSS” reads “high polyreactivity”.
Take “QVQLVESGGGLVQAGGSLRLSCAASGSIFNIYAMGWYRQAPGKERELVATITGIADSTYYADSVKGRFTISRDNAKNTVYLQMNSLKPEDTAVYYCAAIYGSRYTTGQTRRDYYSWGQGTQVTVSS”: the “polyreactivity (PSR sort gate)” value is on record as “low polyreactivity”.
Consider “QVQLVESGGGLVQAGGSLPLSCAASGSIFYSNAMGWYRQAPGKERELVARISRSGGSTYYADSVKGRFTISRDNAKNTVYLQMNSLKPEDTAVYYCAKTFTRSWGLGGSWGQGTQVTVSS”, for which the “polyreactivity (PSR sort gate)” value was “low polyreactivity”.
With “QVQLVESGGGLVQAGGSLRLSCAASGFTFDYYAMGWYRQAPGKERELVAAISKRGGSTYYADSVKGRFTISRDNAKNTVYLQMNSLKPEDTAVYYCAAASYSSPRTSSGNYWGQGTQVYVSS”, the “polyreactivity (PSR sort gate)” value was “high polyreactivity”.
Take “QVQLVESGGGLVQAGGSLRLSCAASGFIFRLYDMVRYRQAPGKERELVAAISSGGRTNYADSVKGRFTISSDNPKNTVYLQMNSLKPEDTAVYYCAARSIFGYRSYGYWGQGTQVTVSS”: the “polyreactivity (PSR sort gate)” value is recorded as “high polyreactivity”.
For the sequence “QVQLVVSGGGLVQAGGSLRLSCAASGSTFFKYVMGWYIQAPGKERELVAAITWRGGRTYYADSVKGRFTISRDNEKNTVYLQMNSLIPEDTAVYYCAAYDQSLYGRRYDYWGQGTQVTVSS”, the “polyreactivity (PSR sort gate)” value was “high polyreactivity”.
Consider “QVQLVESGGGLVQAGGSLRISCAASGSIFYWNTMGWYRQAPGKERELVATITRSGGSTRYADSVKGRCTISRDNAKITVYLQMNSLKPEDTAVYYCAAYRVYKRVVRGFDYWGQGTQVTVSS”, for which the “polyreactivity (PSR sort gate)” value was “low polyreactivity”.
“QVQLVESGGGLVQAGGSLRLSCAASGFIFGYNAMGWYRQAPGKERELVAAIRAGDGSTYYADSVKGRFTISRDNAKNTVYLQMNSLKPEDTAVYYCAAAWRQSGYRYGYWGQGTQVTVAS”: the “polyreactivity (PSR sort gate)” value is “high polyreactivity”.
For the sequence “QVQLVESGGGLVQAGGSLRLSCAASGFTFYRNAMGWYRPAPGKERELVAAISGRGGGTYYADSVKGRFTISRDNAKNTVYLQMNSLKPEDTAVYYCNARLSWSAFGYWGQGTQVTVSS”, the “polyreactivity (PSR sort gate)” value is recorded as “high polyreactivity”.
For “QVQLVESGGGLVQAGGSLRLSCAASGRILYRYAMGWSRQAAGTEREVVAAISRSGGDTYYADSVKGRFTISRDNAKNTVYLQMNSLKPEDTAVYYCAGYSSWSGGLGGVYYWGQGTQVTVSS”, the “polyreactivity (PSR sort gate)” value is given as “low polyreactivity”.
Take “QVQLVESGGGLVQAGGSLRLSCAASGRTFANNAMGWYRQAPGKERELVARISNSGSTNYADSVKGRFTISRDNAKNTVYLQMNSLKPEDTAVYYCAARIVRLYSRYDYWGQGTQVTVSS”: the “polyreactivity (PSR sort gate)” value was “low polyreactivity”.
The result for “QVQLVDSGGGLVQAGGSLRLSCAASGITFRTYAMGWYRQEPGKERELVAAISGSSTSTYYADSVKGRFTISRDNAKNTVYLQMNSLKPEDTAVYYCAAGYRVSVYRYYYWGQGTQVTVSS” reads “high polyreactivity”.
The result for “QVQLVESGGGLVQAGGSLRLSCAASGSTFVQYVMGWYRQAPGKERELVAAISSSGGSTYYADSVKGRFTISRDNAKNTVYLQMNSLKPEDTAVYYCAAYYFVAQARYDYWGQGTQVTVSS” reads “high polyreactivity”; that for “QVQLVESGGGLEQAGGSLRLSCAASGRTLPIYAMGWYIQAPGKERELVAAISWSGASTYADSVKGRFTISRDNAKNTVYLQMTSLKPEETAVYYCAAYYVYWYSSYGYGYWGQGTQVTVSS”, “low polyreactivity”; that for “QVQLVESGGGLVQAGGSLRLSCAASGSTFPKYAMGWYRQAPGKERELVAGISWRGGRTYYADSVKGRFTISRDNAKNTVYLQMNSLKPEDTAVYYCATDYYAFNQGEVKWYDYWGQGTQVSVSS”, “high polyreactivity”.
For “QVQLVESGGGLVQAGGSLRLSCAASGSIFYGYTMGWYRQAPGKERELVAAITYRGGRTYYADSVKGRFTISRDNAKNTDYLQMNSLKPEDTAVYYCAARYDYFSSKYGYWGQGTQVTVSS”, the “polyreactivity (PSR sort gate)” value is on record as “high polyreactivity”.
Take “QVQLVESGGGLVQAGGSLRLSCAASGSTFRTKAMGWYRHAPGKERELVAAITSGTRTYYADSVKGRFTLSRDNAKNTVYLQMNSLKPEDTAVYYCAAEYYGSSYSNYRTEYDYWGQGTQVTVSS”: the “polyreactivity (PSR sort gate)” value is given as “low polyreactivity”.
On to “QVQLVESGGGLVQAGGSLRLSCAASGLILGRYAMGWYRQAPGKERELVAAITRGGRTYYADSVKGRFTISRDNAKNTVYLQMNSLKPEDPAVYYCAATFGYTRNDYDYWGHGTQVTVSS”, for which the “polyreactivity (PSR sort gate)” value is “high polyreactivity”.
Turning to “QVQLVESVRGVVQAGGSLRLSCASSVFTFRWYAMGWFRQAPGKESELVADITRHGGSTYYADSVKGRFTISRDNAKNTVYLQMNSLKPEDTAVYYCAADLSWYDWEDDYWGQGTQVTVSS”, the “polyreactivity (PSR sort gate)” value is “low polyreactivity”.
The result for “QVQLVESGGGLVHAGGSLRLSCAASGFIFTKNAMGWYRQAPGKDRELVAAITSSGGNTYYADSVKGRFTISRDNAKNTVYLQMNSLKPEDTAVYYCAASRFLRMYWGQGTQVTVSS” reads “high polyreactivity”; that for “QVQLVESGGGLVQAGGSLRLSCAASGLILQYYVMGWYRQAPGKERELVAAITRSGGGTYYADSVKGRFTISRDNAKNTVYLQMNSLKPEDTAVYYCADRQPYRFHGSEYDYWGQGTQVNVSS”, “high polyreactivity”.
Regarding “QVQLVESGGGLVQAGGSLRISCAASGIIFDTNAMGWYRQAPGKERELVATITQRGGTTYYADSVKGRFTISRDNAKNTVYLQMNSLKPEDTAVYYCAKDYWFGYEYWGQGTQVTVSS”, the “polyreactivity (PSR sort gate)” value is on record as “low polyreactivity”.
As for “QVQLVESGGGLVQAGGSLRLSCAASGFTFYYYAMGWYRQAPGKERELVARITSGGSTYYADSVKGRFTISRDNAMYTVYLQMNCLKPEDTAVYYCNVDVSVEVAYWGQGTQVTVSS”, the “polyreactivity (PSR sort gate)” value is on record as “low polyreactivity”.
The result for “QVQLLESGGGLVLAGGSLRLSCAASGFIIRPYAIGWYRQAPGKERELVAAITYSSGSTYYADSVKGRFTISRDNAKYTVYLEMNSLKPEDTAVYYCNAEFWYETLYEYDYWGQGTQLTVSS” reads “high polyreactivity”; that for “QVQLVESCGGLVQAGGSLRLSCAASGRNIWDYGMVWYRQAPGKERELVAVITWGGGSTYYADSVKGRFTISRDNAMNTVYLQMNSLKPEDSAVYYCAKEYHYYYWGQGTQVTVSS”, “low polyreactivity”; that for “QVQLVESGGGLVQAGGSLRLSCAASGSTFSHNAMGWYRQAPGKERELVAAISWSGVGTYADSVKGRFTISRDNAKNTVYLQMNSLKPEDTAVYYCNKVSYPSTSSSWFDYWGQGTQVTVSS”, “low polyreactivity”.
